# Laboratory results published in publication PMC8018780, “Two peptides targeting endothelial receptors are internalized into murine brain endothelial cells” (PLoS ONE, 2021).
# pKd: −log10 of the molar value. Ends that are not written are not given here. Peptide text beside a SMILES is read from it. * marks the point of attachment. 5TAMRA = CN(C)c1ccc2c(c1)Oc1cc(N(C)C)ccc1C21OC(=O)c2cc(C(=O)*)ccc21
# Key:
# [1] = tested on: bEnd.3 cells; test: Translocation study based on fluorescence intensity measurement (Transwell, non-contact co-culture with rat astrocytes); format: in vitro ADME, mouse; details: for Pe ("real" endothelial permeability): 1/Pe = 1/Papp,bEnd.3+filter − 1/Papp,filter, fluorescence; for Papp,F (apparent permeability through filter): cell-free collagen-coated polyester Transwell filter, 0.4 μm pores, fluorescence Ex 535/Em 585 nm
# Protocol: (§1) For the translocation studies, an in vitro contact and non-contact co-culture model was used. Forty thousand bEnd.3 cells were seeded on the upper side of the collagen-coated Transwell insert and maintained in cDMEM for 24 hours (contact co-culture) or immediately transferred into a 12-well plate in which rat astrocytes were grown for at least three weeks (non-contact co-culture). In the case of contact co-culture, 24 hours after plating the bEnd.3 approx. 150,000 rat astrocytes were seeded on the bottom side of the flipped Transwell inserts, which was coated with 5 μg/ml poly-L-lysine (P1524, Sigma-Aldrich), and incubated for 2 hours at 37°C. The inserts were then flipped back to the original side and placed into a 12-well plate with rat astrocytes. The cells were cultured in cDMEM at 37°C with 5% CO2/95% air and saturated humidity, and the experiments were performed 4.5–5 days post-seeding of bEnd.3 cells. The medium was switched to phenol red-free cDMEM the day before the experiment.
# (§2) These experiments were performed using the bEnd.3 cells that were cultured with rat astrocytes in a non-contact co-culture model and with cell-free filters as negative controls. On the day of the experiment, the inserts were transferred to a new astrocyte-free 12-well plate, and the medium was changed on both the apical and basolateral sides. The apical side of the membrane was exposed to 10 μM MTfp or GYR for 2 hours while the plates were gently shaken to overcome unstirred water-layer effects. After the 2 hours exposure time, 150 μL sample was taken from both apical and basolateral compartments, and the fluorescence intensity was read by a CLARIOstar® Plus microplate reader (BMG Labtech) (λExc = 535 nm, λEm = 585 nm, Bandwidth = 20 and 30 nm, respectively). The translocation of the peptides is presented as permeability coefficient (a concentration independent transport parameter) and was determine by using the clearance principle.
# (§3) The following equations [27] were used to calculate the permeability coefficient: Papp[cm/s]=B/T⋅vb/A⋅t⋅60 (1) Where Papp is the apparent permeability, B is the relative fluorescence unit (RFU) at time t, T is the top chamber RFU at time 0 (constant), Vb is the volume of the bottom channel [ml], A is the cross-section area of the membrane [cm^2], and t is the time [min].
# (§4) The translocation experiments were performed three times in technical triplicates, and the data are represented as mean (SD).
# [2] = as above; format: in vitro ADME, mouse; details: mouse; bEnd.3 non-contact co-culture with rat astrocytes, polyester Transwell 0.4 μm; 10 μM apical, 2 h, shaken, apical to basolateral; fluorescence (RFU values) Ex 535/Em 585 nm; mean (SD) of three independent experiments with triplicates; read-out: Papp, bEnd.3+F (apparent permeability through bEnd.3 grown on filter)
# Protocol: as §1, §2, §3, §4
# [3] = target: T1, LRP-1 purified from human placenta (Homo sapiens, UniProt Q07954); test: SPR binding to immobilized LRP-1 (Biacore 3000, CM5 chip); details: unlabeled peptide, 0.25-4 μM, 5 μL/min, 25°C, HEPES buffer pH 7.4, Langmuir 1:1 global fit
# T1 construct: LRP-1 was purified from human placenta according to a previously described protocol; from tissue; host or cells: human placenta
# Protocol: (§5) The binding affinity analysis of the MTf and GYR peptides was performed using the Biacore 3000 system (Cytiva, UK) equipped with a CM5 sensor chip. The sensor chip was initially activated by injection of 0.2 M 1-ethyl-3-(3-dimethylaminopropyl) carbodiimide hydrochloride and 0.05 M N-hydroxysuccinimide in water. Recombinant human and mouse TfR protein (SinoBiological, Inc., Beijing, PRC) was purchased with a His-tag and immobilized on the sensor chip at 58 fmol/mm^2. LRP-1 was purified from human placenta according to a previously described protocol and immobilized to densities of 0.025 fmol/mm^2. The remaining carboxylate groups were blocked with 1 M ethanolamine. The MTf and GYR peptides were injected for binding to the immobilized TfR or LRP-1 protein at 5 μL/min at 25°C in 10 mM HEPES, 150 mM NaCl, 1.5 mM CaCl2, 1 mM EGTA, and 0.005% Tween 20 (pH 7.4) at five different concentrations (0.25 μM, 0.5 μM, 1 μM, 2 μM and 4 μM). The reference flow channel (FC1) was activated and blocked but without immobilized TfR or LRP-1. The dissociation constant (KD) values were calculated using the BIAevaluation 4.1 software (Cytiva, UK) using the predefined Langmuir 1:1 interaction model and fitted using a drifting baseline with global fitting to the curves of the considered concentration range.
# [4] = target: T2, Recombinant mouse TfR protein (mTfR) (Mus musculus, UniProt Q62351); test: SPR binding to immobilized mouse TfR (Biacore 3000, CM5 chip); details: unlabeled peptide, 0.25-4 μM, 25°C, pH 7.4, Langmuir 1:1 global fit
# T2 construct: His-tag; purchased SinoBiological, Inc., Beijing, PRC
# Protocol: as §5
# [5] = 10 μM apical, 2 h, mean (SD) of three independent experiments with triplicates
# [6] = alternative calculation, 10 μM apical, 120 min
# [7] = 10 μM apical, 2 h, shaken, apical to basolateral, mean (SD) of three independent experiments with triplicates
# T1 sequence (Q07954 20-4544): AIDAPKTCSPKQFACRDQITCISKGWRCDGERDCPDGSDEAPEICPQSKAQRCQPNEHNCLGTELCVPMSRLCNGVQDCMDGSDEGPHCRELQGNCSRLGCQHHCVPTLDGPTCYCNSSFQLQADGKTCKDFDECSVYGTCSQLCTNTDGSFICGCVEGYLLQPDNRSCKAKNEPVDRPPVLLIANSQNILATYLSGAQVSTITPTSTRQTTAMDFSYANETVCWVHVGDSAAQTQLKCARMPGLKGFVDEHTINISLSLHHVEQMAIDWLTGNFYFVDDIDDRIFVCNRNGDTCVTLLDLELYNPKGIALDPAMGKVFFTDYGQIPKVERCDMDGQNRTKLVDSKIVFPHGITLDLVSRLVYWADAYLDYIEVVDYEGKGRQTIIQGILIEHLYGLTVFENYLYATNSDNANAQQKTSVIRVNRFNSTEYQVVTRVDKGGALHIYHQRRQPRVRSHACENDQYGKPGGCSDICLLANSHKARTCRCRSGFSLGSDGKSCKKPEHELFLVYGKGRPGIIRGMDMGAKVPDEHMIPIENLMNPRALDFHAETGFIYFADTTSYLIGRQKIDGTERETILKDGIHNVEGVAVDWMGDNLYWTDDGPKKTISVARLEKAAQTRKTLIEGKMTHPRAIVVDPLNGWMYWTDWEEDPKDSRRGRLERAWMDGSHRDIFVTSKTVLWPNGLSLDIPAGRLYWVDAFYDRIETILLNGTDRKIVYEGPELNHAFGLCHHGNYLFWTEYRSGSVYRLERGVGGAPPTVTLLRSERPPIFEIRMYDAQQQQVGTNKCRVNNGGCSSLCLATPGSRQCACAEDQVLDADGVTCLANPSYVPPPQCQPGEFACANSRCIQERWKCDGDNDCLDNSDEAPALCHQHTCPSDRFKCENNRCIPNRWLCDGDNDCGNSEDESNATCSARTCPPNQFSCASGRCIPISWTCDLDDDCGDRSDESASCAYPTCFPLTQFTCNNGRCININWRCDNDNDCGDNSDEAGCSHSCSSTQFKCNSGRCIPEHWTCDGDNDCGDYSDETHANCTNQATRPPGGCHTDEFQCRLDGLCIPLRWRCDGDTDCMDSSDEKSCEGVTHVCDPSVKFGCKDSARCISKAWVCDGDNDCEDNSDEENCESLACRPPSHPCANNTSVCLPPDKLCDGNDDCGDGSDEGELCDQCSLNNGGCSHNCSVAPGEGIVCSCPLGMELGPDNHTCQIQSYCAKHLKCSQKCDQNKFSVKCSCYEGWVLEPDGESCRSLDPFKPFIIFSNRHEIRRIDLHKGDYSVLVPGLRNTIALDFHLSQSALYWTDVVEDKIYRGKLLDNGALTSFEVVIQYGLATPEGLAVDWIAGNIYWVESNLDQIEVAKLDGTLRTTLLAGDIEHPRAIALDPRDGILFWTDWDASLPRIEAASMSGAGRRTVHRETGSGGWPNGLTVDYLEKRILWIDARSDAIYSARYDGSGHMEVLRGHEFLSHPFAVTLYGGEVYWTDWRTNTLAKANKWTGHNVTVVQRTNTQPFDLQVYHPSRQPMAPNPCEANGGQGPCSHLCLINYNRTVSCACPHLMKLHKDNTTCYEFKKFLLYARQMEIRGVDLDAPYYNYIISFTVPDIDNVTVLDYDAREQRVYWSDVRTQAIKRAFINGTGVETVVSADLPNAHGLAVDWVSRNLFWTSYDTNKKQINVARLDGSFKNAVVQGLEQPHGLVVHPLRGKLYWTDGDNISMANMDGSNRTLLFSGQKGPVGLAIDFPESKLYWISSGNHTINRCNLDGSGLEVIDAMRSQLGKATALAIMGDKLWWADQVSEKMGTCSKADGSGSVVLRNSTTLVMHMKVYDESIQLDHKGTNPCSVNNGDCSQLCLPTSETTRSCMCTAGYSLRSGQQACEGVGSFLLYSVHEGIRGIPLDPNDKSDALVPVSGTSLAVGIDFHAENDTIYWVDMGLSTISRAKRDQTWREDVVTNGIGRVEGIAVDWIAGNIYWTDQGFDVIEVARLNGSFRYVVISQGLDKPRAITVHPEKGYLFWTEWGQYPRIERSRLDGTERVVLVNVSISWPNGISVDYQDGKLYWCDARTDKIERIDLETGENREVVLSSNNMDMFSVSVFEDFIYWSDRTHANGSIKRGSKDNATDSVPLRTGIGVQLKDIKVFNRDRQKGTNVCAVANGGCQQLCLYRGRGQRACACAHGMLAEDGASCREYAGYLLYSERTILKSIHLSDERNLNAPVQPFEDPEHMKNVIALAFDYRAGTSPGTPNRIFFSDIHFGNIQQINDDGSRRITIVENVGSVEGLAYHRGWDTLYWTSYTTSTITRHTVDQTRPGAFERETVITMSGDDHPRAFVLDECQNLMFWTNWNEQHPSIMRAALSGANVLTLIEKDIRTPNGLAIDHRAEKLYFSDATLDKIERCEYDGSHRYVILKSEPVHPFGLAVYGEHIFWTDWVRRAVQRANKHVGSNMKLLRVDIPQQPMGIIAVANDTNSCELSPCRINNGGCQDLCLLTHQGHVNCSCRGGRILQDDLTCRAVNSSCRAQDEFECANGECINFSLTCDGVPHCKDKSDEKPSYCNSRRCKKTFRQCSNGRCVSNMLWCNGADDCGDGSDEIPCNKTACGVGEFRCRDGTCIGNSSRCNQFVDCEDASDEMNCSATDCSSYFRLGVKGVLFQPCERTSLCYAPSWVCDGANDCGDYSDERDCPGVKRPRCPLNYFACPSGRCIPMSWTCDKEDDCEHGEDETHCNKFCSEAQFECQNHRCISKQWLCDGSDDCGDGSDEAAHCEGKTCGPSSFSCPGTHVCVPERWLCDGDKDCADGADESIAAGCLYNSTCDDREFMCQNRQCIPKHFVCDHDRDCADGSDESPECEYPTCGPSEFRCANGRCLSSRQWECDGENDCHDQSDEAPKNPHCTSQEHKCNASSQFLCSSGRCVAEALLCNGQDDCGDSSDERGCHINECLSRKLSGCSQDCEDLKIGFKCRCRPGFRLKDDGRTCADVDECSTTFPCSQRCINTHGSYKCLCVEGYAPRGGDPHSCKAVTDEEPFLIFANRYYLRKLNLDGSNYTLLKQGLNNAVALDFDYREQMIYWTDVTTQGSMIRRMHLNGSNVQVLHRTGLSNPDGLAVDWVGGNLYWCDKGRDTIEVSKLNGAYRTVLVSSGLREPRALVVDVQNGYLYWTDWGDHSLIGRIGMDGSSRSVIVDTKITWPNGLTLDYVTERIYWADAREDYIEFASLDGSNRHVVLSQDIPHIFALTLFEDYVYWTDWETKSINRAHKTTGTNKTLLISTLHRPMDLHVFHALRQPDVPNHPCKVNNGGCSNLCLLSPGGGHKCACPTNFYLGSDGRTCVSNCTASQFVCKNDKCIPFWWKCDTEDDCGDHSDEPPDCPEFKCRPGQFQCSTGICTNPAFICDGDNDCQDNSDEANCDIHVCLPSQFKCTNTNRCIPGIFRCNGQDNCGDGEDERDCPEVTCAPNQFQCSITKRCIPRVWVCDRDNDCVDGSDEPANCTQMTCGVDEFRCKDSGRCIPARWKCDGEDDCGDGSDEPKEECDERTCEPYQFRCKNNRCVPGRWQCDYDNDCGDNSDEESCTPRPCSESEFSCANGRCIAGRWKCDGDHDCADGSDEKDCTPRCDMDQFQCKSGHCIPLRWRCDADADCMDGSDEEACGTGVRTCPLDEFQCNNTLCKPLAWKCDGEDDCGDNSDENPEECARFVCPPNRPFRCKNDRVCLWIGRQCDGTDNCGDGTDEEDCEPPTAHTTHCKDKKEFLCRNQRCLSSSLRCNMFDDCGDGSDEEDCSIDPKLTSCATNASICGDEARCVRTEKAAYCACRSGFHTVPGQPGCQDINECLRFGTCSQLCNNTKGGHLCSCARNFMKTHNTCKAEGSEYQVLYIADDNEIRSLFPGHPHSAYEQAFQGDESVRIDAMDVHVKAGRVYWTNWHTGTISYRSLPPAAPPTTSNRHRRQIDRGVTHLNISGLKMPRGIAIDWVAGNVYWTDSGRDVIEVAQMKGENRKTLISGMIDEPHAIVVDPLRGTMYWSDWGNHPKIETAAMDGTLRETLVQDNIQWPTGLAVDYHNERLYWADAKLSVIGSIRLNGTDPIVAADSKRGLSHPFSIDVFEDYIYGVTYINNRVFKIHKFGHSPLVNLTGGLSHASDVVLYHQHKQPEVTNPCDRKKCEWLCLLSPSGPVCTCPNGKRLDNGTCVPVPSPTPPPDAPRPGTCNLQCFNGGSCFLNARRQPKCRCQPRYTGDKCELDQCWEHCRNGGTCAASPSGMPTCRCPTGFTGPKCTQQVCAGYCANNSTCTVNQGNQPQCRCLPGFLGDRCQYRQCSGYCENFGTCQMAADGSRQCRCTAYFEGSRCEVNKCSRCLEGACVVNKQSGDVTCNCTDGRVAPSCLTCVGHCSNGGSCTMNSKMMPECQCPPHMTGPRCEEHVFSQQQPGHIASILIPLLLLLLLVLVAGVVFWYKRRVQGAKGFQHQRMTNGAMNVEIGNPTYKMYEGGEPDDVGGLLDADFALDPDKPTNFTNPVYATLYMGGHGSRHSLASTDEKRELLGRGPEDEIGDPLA
Compound,"Pe (""real"" endothelial permeability) [1, 5]","Papp,F (apparent permeability through filter) [1, 7]",pKd [3],further results
CC[C@H](C)[C@H](NC(=O)[C@H](CC(N)=O)NC(=O)[C@H](Cc1c[nH]cn1)NC(=O)[C@@H](NC(=O)[C@@H]1CCCN1C(=O)[C@H](CCCNC(=N)N)NC(=O)[C@H](Cc1ccc(O)cc1)NC(=O)CN)C(C)C)C(=O)N[C@@H](CCCNC(=N)N)C(=O)NCC(=O)N[C@@H](Cc1c[nH]cn1)C(=O)N[C@@H](Cc1c[nH]c2ccccc12)C(=O)N[C@@H](C)C(=O)N1CCC[C@H]1C(=O)NCC(=O)N[C@@H](CCCCNC(=O)c1ccc2c(c1)C(=O)OC21c2ccc(N(C)C)cc2Oc2cc(N(C)C)ccc21)C(N)=O [GYR-TAMRA] (H-GYRPVHNIRGHWAPGK(5TAMRA)-NH2),15.17 (1.83) x 10^−6 cm/s,12.82 (3.11) x 10^−6 cm/s,,"Papp (bEnd.3 + filter), calculated concentrations based on a standard curve [1, 6]: 6.71 ×10⁻⁶ cm/s; Papp (bEnd.3 + filter), calculated final basal concentration and the 10 µM initial apical concentration [1, 6]: 6.31 ×10⁻⁶ cm/s; Papp, bEnd.3+F (apparent permeability through bEnd.3 grown on filter) ([1]; bEnd.3 non-contact co-culture with rat astrocytes, polyester Transwell 0.4 μm, 10 μM apical, 2 h, shaken, apical to basolateral, fluorescence (RFU values) Ex 535/Em 585 nm, mean (SD) of three independent experiments with triplicates): 6.64 (1.16) x 10^−6 cm/s"
CC[C@H](C)[C@H](NC(=O)[C@H](CCCNC(=N)N)NC(=O)[C@@H](NC(=O)[C@@H](NC(=O)[C@H](Cc1ccccc1)NC(=O)[C@@H]1CCCN1C(=O)[C@@H](NC(=O)[C@H](CC(=O)O)NC(=O)CNC(=O)[C@H](CCCNC(=N)N)NC(=O)[C@H](CC(N)=O)NC(=O)[C@H](CCC(=O)O)NC(=O)[C@@H](NC(=O)[C@H](CC(C)C)NC(=O)[C@H](CS)NC(=O)[C@H](CCCNC(=N)N)NC(=O)[C@H](Cc1ccccc1)NC(=O)c1ccc2c(c1)C(=O)OC21c2ccc(N(C)C)cc2Oc2cc(N(C)C)ccc21)C(C)C)C(C)C)C(C)C)[C@@H](C)O)C(=O)N[C@@H](CCCNC(=N)N)C(N)=O [MTfp-TAMRA] (5TAMRA-FRCLVENRGDVPFVTRIR-NH2),4.57 (0.64) x 10^−6 cm/s,5.86 (1.27) x 10^−6 cm/s,,"Papp A→B at 2 h, 10 µM [2]: 2.55 ×10⁻⁶ cm/s"
FRCLVENRGDVPFVTRIR-NH2 [MTfp],,,9.24,
GYRPVHNIRGHWAPGK-NH2 [GYR],,,7.00,pKd [4]: 3.00; Remaining peptide most likely trapped inside the filter membrane or in the endothelial cell layer ([1]; 100% minus collected): 1.7%
